What was measured:
[1] = biological target: TaSG-D1^E286K-GFP (Indian dwarf wheat (Triticum sphaerococcum))
[2] = biological target: TaSG-D1-GFP (wheat (Triticum aestivum))

share of TaPIF4 associated with and protected by the kinase after 3 h heat stress: TaPIF4 protein still detectable on co-transformation in N. benthamiana leaves (88%) less that of the control (12%) [1]: 76%
share of TaPIF4 associated with and protected by the kinase after 3 h heat stress: TaPIF4 protein still detectable on co-transformation in N. benthamiana leaves (23%) less that of the control (12%) [2]: 11%
Substance: TaPIF4-Myc (natural protein)

— paper PMC10920922
